Measured values published in the supplement of paper PMC11246515.
± gives the standard deviation of the averaged measurements.

Experiment: total protein half-life in vivo (active degradation + dilution); higher = more stable protein
[1] = E. coli NCM3722 delta-clpP, growth: N-lim chemostat, doubling time 6 h
[2] = E. coli NCM3722 delta-hslV, growth: N-lim chemostat, doubling time 6 h
[3] = E. coli NCM3722 delta-lon, growth: N-lim chemostat, doubling time 6 h
[4] = E. coli NCM3722 delta-smpB, growth: N-lim chemostat, doubling time 6 h
[5] = wild type E. coli NCM3722, growth: C-lim chemostat, doubling time 3 h
[6] = wild type E. coli NCM3722, growth: C-lim chemostat, doubling time 6 h
[7] = wild type E. coli NCM3722, growth: C-lim chemostat, doubling time 12 h
[8] = wild type E. coli NCM3722, growth: N-lim chemostat, doubling time 6 h
[9] = wild type E. coli NCM3722, growth: N-lim chemostat, doubling time 12 h
[10] = wild type E. coli NCM3722, growth: P-lim chemostat, doubling time 6 h
[11] = wild type E. coli NCM3722, growth: P-lim chemostat, doubling time 12 h
[12] = E. coli NCM3722 delta-clpP delta-lon delta-hslV, growth: N-lim chemostat, doubling time 6 h

Row | Sequence | total protein half-life in vivo [1] [h] | total protein half-life in vivo [2] [h] | total protein half-life in vivo [3] [h] | total protein half-life in vivo [4] [h] | total protein half-life in vivo [5] [h] | total protein half-life in vivo [6] [h] | total protein half-life in vivo [7] [h] | total protein half-life in vivo [8] [h] | total protein half-life in vivo [9] [h] | total protein half-life in vivo [10] [h] | total protein half-life in vivo [11] [h] | total protein half-life in vivo [12] [h]
1 | MISANRPIINLDLDLLRTFVAVADLNTFAAAAAAVCRTQSAVSQQMQRLEQLVGKELFARHGRNKLLTEHGIQLLGYARKILRFNDEACSSLMFSNLQGVLTIGASDESADTILPFLLNRVSSVYPKLALDVRVKRNAYMAEMLESQEVDLMVTTHRPSAFKALNLRTSPTHWYCAAEYILQKGEPIPLVLLDDPSPFRDMVLATLNKADIPWRLAYVASTLPAVRAAVKAGLGVTARPVEMMSPDLRVLSGVDGLPPLPDTEYLLCYDPSSNNELAQVIYQAMESYHNPWQYSPMSAPEGDDSLLIERDIE | 5.56 ± 0.33 | 2.546 ± 0.023 | 3.25 | 2.713 ± 0.022 | 2.45 ± 0.064 | 4.7 ± 0.26 | 7.62 ± 0.41 | 3.28 ± 1.1 | 3.66 ± 0.051 | 3.43 ± 0.079 | 6.34 ± 0.77 | 
2 | MQKYISEARLLLALAIPVILAQIAQTAMGFVDTVMAGGYSATDMAAVAIGTSIWLPAILFGHGLLLALTPVIAQLNGSGRRERIAHQVRQGFWLAGFVSVLIMLVLWNAGYIIRSMENIDPALADKAVGYLRALLWGAPGYLFFQVARNQCEGLAKTKPGMVMGFIGLLVNIPVNYIFIYGHFGMPELGGVGCGVATAAVYWVMFLAMVSYIKRARSMRDIRNEKGTAKPDPAVMKRLIQLGLPIALALFFEVTLFAVVALLVSPLGIVDVAGHQIALNFSSLMFVLPMSLAAAVTIRVGYRLGQGSTLDAQTAARTGLMVGVCMATLTAIFTVSLREQIALLYNDNPEVVTLAAHLMLLAAVYQISDSIQVIGSGILRGYKDTRSIFYITFTAYWVLGLPSGYILALTDLVVEPMGPAGFWIGFIIGLTSAAIMMMLRMRFLQRLPSAIILQRASR | 6.61 |  | 4.97 ± 0.54 | 5.45 ± 0.68 | 3.6 |  | > 16 | 6.87 ± 0.42 | 12 ± 0.72 | 5.52 ± 0.6 | 12.7 ± 0.75 | 5.68 ± 0.19
3 | MRALLPYLALYKRHKWMLSLGIVLAIVTLLASIGLLTLSGWFLSASAVAGVAGLYSFNYMLPAAGVRGAAITRTAGRYFERLVSHDATFRVLQHLRIYTFSKLLPLSPAGLARYRQGELLNRVVADVDTLDHLYLRVISPLVGAFVVIMVVTIGLSFLDFTLAFTLGGIMLLTLFLMPPLFYRAGKSTGQNLTHLRGQYRQQLTAWLQGQAELTIFGASDRYRTQLENTEIQWLEAQRRQSELTALSQAIMLLIGALAVILMLWMASGGVGGNAQPGALIALFVFCALAAFEALAPVTGAFQHLGQVIASAVRISDLTDQKPEVTFPDTQTRVADRVSLTLRDVQFTYPEQSQQALKGISLQVNAGEHIAILGRTGCGKSTLLQQLTRAWDPQQGEILLNDSPIASLNEAALRQTISVVPQRVHLFSATLRDNLLLASPGSSDEALSEILRRVGLEKLLEDAGLNSWLGEGGRQLSGGELRRLAIARALLHDAPLVLLDEPTEGLDATTESQILELLAEMMREKTVLMVTHRLRGLSRFQQIIVMDNGQIIEQGTHAELLARQGRYYQFKQGL | 6.58 ± 0.21 | 6.08 ± 0.081 | 6.01 ± 0.34 | 5.928 ± 0.023 | 3.08 ± 0.092 | 5.92 ± 0.12 |  | 5.99 ± 0.31 | 11.7 ± 0.28 | 6.274 ± 0.058 | 12.3 ± 1.1 | > 8
4 | MTVKQTVEITNKLGMHARPAMKLFELMQGFDAEVLLRNDEGTEAEANSVIALLMLDSAKGRQIEVEATGPQEEEALAAVIALFNSGFDED [P0A9N0] | 2.96 | 2.41 | 2.28 | 2.09 | 2.15 ± 0.18 | 3.27 ± 0.19 | 4.27 | 2.7 | 3.97 ± 0.24 | 2.35 | 4.46 ± 0.45 | 4.886 ± 0.034
5 | MSQKLKVVTIGGGSSYTPELLEGFIKRYHELPVSELWLVDVEGGKPKLDIIFDLCQRMIDNAGVPMKLYKTLDRREALKDADFVTTQLRVGQLPARELDERIPLSHGYLGQETNGAGGLFKGLRTIPVIFDIVKDVEELCPNAWVINFTNPAGMVTEAVYRHTGFKRFIGVCNIPIGMKMFIRDVLMLKDSDDLSIDLFGLNHMVFIKDVLINGKSRFAELLDGVASGQLKASSVKNIFDLPFSEGLIRSLNLLPCSYLLYYFKQKEMLAIEMGEYYKGGARAQVVQKVEKQLFELYKNPELKVKPKELEQRGGAYYSDAACEVINAIYNDKQAEHYVNIPHHGQIDNIPADWAVEMTCKLGRDGATPHPRITHFDDKVMGLIHTIKGFEIAASNAALSGEFNDVLLALNLSPLVHSDRDAELLAREMILAHEKWLPNFADCIAELKKAH | 7.38 | > 8 |  | 3.97 ± 0.054 | 2.84 ± 0.34 | 6.45 ± 1.8 | 9.95 ± 0.38 | 4.52 | 8.23 ± 0.59 | 6.29 ± 0.62 | 11 ± 1.1 | 6.05 ± 1.9
6 | MDMHSGTFNPQDFAWQGLTLTPAAAIHIRELVAKQPGMVGVRLGVKQTGCAGFGYVLDSVSEPDKDDLLFEHDGAKLFVPLQAMPFIDGTEVDFVREGLNQIFKFHNPKAQNECGCGESFGV | 2.79 |  | 3.64 | 2.14 | 1.94 ± 0.049 | 3.99 ± 0.5 | 4.5 | 1.86 ± 0.16 | 2.58 | 2.69 | 4.79 ± 0.6 | 4.64 ± 0.11
7 | MVEDILAPGLRVVFCGINPGLSSAGTGFPFAHPANRFWKVIYQAGFTDRQLKPQEAQHLLDYRCGVTKLVDRPTVQANEVSKQELHAGGRKLIEKIEDYQPQALAILGKQAYEQGFSQRGAQWGKQTLTIGSTQIWVLPNPSGLSRVSLEKLVEAYRELDQALVVRGR [P0A9H1] | 5.22 ± 0.42 | 6.31 ± 1.5 | 5.677 ± 0.045 | 4.88 ± 0.35 | 3.1514 ± 0.00069 | 5.79 ± 0.27 | 12.1 ± 1.1 | 5.18 ± 0.47 | 8.94 ± 0.12 | 5.74 ± 0.3 | 11.7 ± 0.27 | 5.34 ± 0.42
8 | MLYIFDLGNVIVDIDFNRVLGAWSDLTRIPLASLKKSFHMGEAFHQHERGEISDEAFAEALCHEMALPLSYEQFSHGWQAVFVALRPEVIAIMHKLREQGHRVVVLSNTNRLHTTFWPEEYPEIRDAADHIYLSQDLGMRKPEARIYQHVLQAEGFSPSDTVFFDDNADNIEGANQLGITSILVKDKTTIPDYFAKVLC [P0A8Y3] | 5.75 ± 1.6 | 3.94 ± 0.21 | 5 ± 0.69 | 4.212 ± 0.04 | 2.92 ± 0.13 | 6.31 ± 0.65 | 9.46 ± 0.36 | 4.14 ± 0.74 | 6.16 ± 0.12 | 5.18 ± 0.06 | 9.4 ± 0.48 | 
9 | MTITSLDGYRWLKNDIIRGNFQPDEKLRMSLLTSRYALGVGPLREALSQLVAERLVTVVNQKGYRVASMSEQELLDIFDARANMEAMLVSLAIARGGDEWEADVLAKAHLLSKLEACDASEKMLDEWDLRHQAFHTAIVAGCGSHYLLQMRERLFDLAARYRFIWLRRTVLSVEMLEDKHDQHQTLTAAVLARDTARASELMRQHLLTPIPIIQQAMAGN | 2.81 ± 0.13 | 2.106 ± 0.011 | 3.54 ± 0.24 | 2.18 ± 0.088 | 1.96 ± 0.16 | 3.69 ± 0.43 | 5.04 ± 0.48 | 1.99 ± 0.21 | 2.52 ± 0.064 | 1.56 | 3.14 ± 1.1 | 5.31 ± 0.62
10 | MKNQAHPIIVVKRRKAKSHGAAHGSWKIAYADFMTAMMAFFLVMWLISISSPKELIQIAEYFRTPLATAVTGGDRISNSESPIPGGGDDYTQSQGEVNKQPNIEELKKRMEQSRLRKLRGDLDQLIESDPKLRALRPHLKIDLVQEGLRIQIIDSQNRPMFRTGSADVEPYMRDILRAIAPVLNGIPNRISLSGHTDDFPYASGEKGYSNWELSADRANASRRELMVGGLDSGKVLRVVGMAATMRLSDRGPDDAVNRRISLLVLNKQAEQAILHENAESQNEPVSALEKPEVAPQVSVPTMPSAEPR [P0AF06] |  |  |  |  | 0.683 ± 0.017 | 1.21 | 1.33 |  |  |  |  | 
11 | MQFDWSAIWPAIPLLIEGAKMTLWISVLGLAGGLVIGLLAGFARTFGGWIANHVALVFIEVIRGTPIVVQVMFIYFALPMAFNDLRIDPFTAAVVTIMINSGAYIAEITRGAVLSIHKGFREAGLALGLSRWETIRYVILPLALRRMLPPLGNQWIISIKDTSLFIVIGVAELTRQGQEIIAGNFRALEIWSAVAVFYLIITLVLSFILRRLERRMKIL [P0AEQ6] | 5.86 ± 0.24 | 6.66 ± 0.23 | 5.82 ± 0.19 | 6.3 ± 1.3 | 3.216 ± 0.017 | 6.15 ± 0.25 |  | 6.75 ± 0.56 | 11.4 ± 4.3 |  | 13 ± 0.43 | 7.5 ± 0.32
12 | MKLDEIARLAGVSRTTASYVINGKAKQYRVSDKTVEKVMAVVREHNYHPNAVAAGLRAGRTRSIGLVIPDLENTSYTRIANYLERQARQRGYQLLIACSEDQPDNEMRCIEHLLQRQVDAIIVSTSLPPEHPFYQRWANDPFPIVALDRALDREHFTSVVGADQDDAEMLAEELRKFPAETVLYLGALPELSVSFLREQGFRTAWKDDPREVHFLYANSYEREAAAQLFEKWLETHPMPQALFTTSFALLQGVMDVTLRRDGKLPSDLAIATFGDNELLDFLQCPVLAVAQRHRDVAERVLEIVLASLDEPRKPKPGLTRIKRNLYRRGVLSRS [P0ACP1] | 5.37 ± 0.29 | 5.38 ± 0.37 | 5.87 ± 0.21 | 5.16 ± 0.56 | 3.17 ± 0.32 | 5.63 ± 0.057 | 9.99 ± 0.83 | 5.65 ± 0.2 | 10.7 ± 0.77 | 5.6 ± 0.084 | 10.65 ± 0.013 | 6.0472 ± 0.0054
